Measurements from patent US20250340654A1 (INTERVET, published 2025).

T1: Canine IL-31RA ECD-10His (canine, biotin-labeled in the Octet assay (site not stated))
T1 construct: The ELISA and Octet protocols say only 'IL-31RA' or 'canine IL-31RA'; also called cIL-31RA; canine IL-31 receptor alpha extracellular domain, HIS-tagged
T1 chain: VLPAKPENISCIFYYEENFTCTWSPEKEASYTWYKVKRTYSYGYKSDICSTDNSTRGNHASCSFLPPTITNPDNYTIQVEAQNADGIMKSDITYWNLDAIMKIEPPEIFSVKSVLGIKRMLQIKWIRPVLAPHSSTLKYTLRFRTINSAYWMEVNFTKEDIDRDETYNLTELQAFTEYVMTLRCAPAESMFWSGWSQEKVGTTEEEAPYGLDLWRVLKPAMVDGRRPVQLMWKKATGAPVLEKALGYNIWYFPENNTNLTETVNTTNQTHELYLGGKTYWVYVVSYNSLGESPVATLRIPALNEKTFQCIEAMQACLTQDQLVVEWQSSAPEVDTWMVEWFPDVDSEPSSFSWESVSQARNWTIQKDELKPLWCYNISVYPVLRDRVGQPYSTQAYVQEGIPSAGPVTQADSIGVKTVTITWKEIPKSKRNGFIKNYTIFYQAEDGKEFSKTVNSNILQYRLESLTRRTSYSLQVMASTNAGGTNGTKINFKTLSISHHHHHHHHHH


How the values were obtained:
Canine IL-31RA ECD-10His [1] = target: T1, Canine IL-31RA ECD-10His; assay: BLI (Octet HTX), biotin-labeled canine IL-31RA on SA biosensors, 1:1 fit
Procedure: These constants reflect the binding affinity of the individual monoclonal antibodies for canine IL-31 RA.
(§1) All kinetics measurements were performed by Octet HTX using SA biosensors and Data Acquisition 12.0 software. A biotin-labeled antigen (canine IL-31RA) was loaded onto the pre-rehydrated SA biosensors for 120s at a concentration of 1 μg/mL. Next, the biosensors were placed into Octet Kinetics Buffer (PBS+0.02% Tween 20, 0.1% BSA) for the blocking phase for 120s. Then, for the association phase, antigen loaded biosensors were placed into 2-fold serial dilutions from 100 nM down to 3.13 nM of anti-IL-31RA monoclonal antibody in Octet Kinetics Buffer for 300s. The last well was buffer alone and that sensor was used for reference sensor subtraction. Finally, the biosensors were placed into Octet Kinetics Buffer for the dissociation phase for 300s. Analysis was performed using Data Analysis 12.0 software and curves were fitted using a 1:1 binding model.

Canine IL-31RA ECD-10His [2] = target: T1, Canine IL-31RA ECD-10His; assay: ELISA on coated canine IL-31RA, anti-canine IgG Fc-HRP (Example 11), the unit is that of the x axis 'Ab Log Conc. (ng/mL)'
Procedure: 1. Coat 200 ng/well of IL-31RA on an immunoplate and incubate the plate at 4° C. overnight. [0257] 2. Wash the plate 3 times with phosphate buffered saline (PBS) containing 0.05% Tween 20 (PBST). […] 3. Block the plate with 0.5% bovine serum albumin (BSA) in PBS for 45-60 min at room temperature. [0259] 4. Wash the plate 3 times with PBST. [0260] 5. Three-fold dilute the caninized antibody in each column or row of dilution plate starting at 0.3 μg/mL. [0261] 6. Transfer the diluted caninized antibody into each column or row of the immunoplate, and incubate the plate for 45-60 min at room temperature. [0262] 7. Wash the plate 3 times with PBST. [0263] 8. Add 1:4000 diluted horseradish peroxidase labeled anti-canine IgG Fc into each well of the plate, and then incubate the plate for 45-60 min at room temperature. [0264] 9. Wash the plate 3 times with PBST. [0265] 10. Add 3,3′,5,5′-tetramethylbenzidine (TMB) Substrate into each well of the plate, and incubate the plate for 10 to 15 min at room temperature to develop the color. [0266] 11. Add 100 μL 1.5 M phosphoric acid into each well to stop the reaction. Read plate at 450 nm with 540 nm reference wavelength.
As depicted in FIGS. 7A-7E, the caninized antibodies were tested for their reactivity to canine IL-31RA.

Canine IL-31RA ECD-10His [3] = target: T1, Canine IL-31RA ECD-10His; assay: BLI (Octet), biotin-labeled canine IL-31RA on SA biosensors
Procedure: as §1
Two of the top blocking antibodies: 51F8 and 218D9, had KDs of about 0.2 nM and about 0.07 nM respectively (see, Table 5B below).

Row | Binder | Kd (Canine IL-31RA ECD-10His [1]) [pM] | koff (Canine IL-31RA ECD-10His [1]) [s⁻¹] | kon (Canine IL-31RA ECD-10His [1]) [M⁻¹ s⁻¹] | EC50 (Canine IL-31RA ECD-10His [2]) [ng/mL] | Kd (Canine IL-31RA ECD-10His [3]) [pM] | koff (Canine IL-31RA ECD-10His [3]) [s⁻¹] | kon (Canine IL-31RA ECD-10His [3]) [M⁻¹ s⁻¹]
1 | 51F8 (antibody, V domains shown, Mouse monoclonal antibody from a hybridoma; also called mouse mAb 51F8) VH: EVQLQQSVAELVRPGASVKLSCTASGFNIKNTFIHWVKQRPEQGLEWIGRIDPANGNTKYAPKFQGRATLTADTSSNTAYLQLSSLTSEDTAIYYCARYYYVSSYFDVWGTGTTVTVSS VL: SIVMTQTPKFLLVSAGDRVTITCKASQSVTNDVTWYQQKPGQSPKLLIFSASNRYTGVPDRFTGSGYGTDFTFTISTVQAEDLAVYFCQQDYSSPWTFGGGTKLEIK | 207 | 0.000141 | 684000 | – | – | – | –
2 | Chimeric 51F8 (antibody, V domains shown, canine constant regions not specified; also called murine-canine chimeric 51F8) VH: EVQLQQSVAELVRPGASVKLSCTASGFNIKNTFIHWVKQRPEQGLEWIGRIDPANGNTKYAPKFQGRATLTADTSSNTAYLQLSSLTSEDTAIYYCARYYYVSSYFDVWGTGTTVTVSS VL: SIVMTQTPKFLLVSAGDRVTITCKASQSVTNDVTWYQQKPGQSPKLLIFSASNRYTGVPDRFTGSGYGTDFTFTISTVQAEDLAVYFCQQDYSSPWTFGGGTKLEIK | – | – | – | 3.42 | 207 | 0.000141 | 684000
3 | Chimeric 85C10 (antibody, V domains shown, canine constant regions not specified; also called murine-canine chimeric 85C10) VH: EFQLQQSGPELVKPGASVKISCKASGYSFTDYSINWVKQSNGKSLEWIGVINPNYGTSSHNQKFKGKATMTVDQSSSTAYMQLNSLTSEDSAVYYCARALDDYYFYWYFDVWGIGTTVTVSS VL: DVVMTQTPLSLPVSLGDQASISCRSSQSLVHTNGNTYLHWYLQKPGQSPKLLIYKVSNRFSGVPDRFSGSGSGTDFTLKISRVEAEDLGVYFCSQTTHVPLTFGAGTKLELK | – | – | – | 2.58 | – | – | –
4 | 65G9 (antibody, V domains shown, Mouse monoclonal antibody from a hybridoma; also called mouse mAb 65G9) VH: EFQLQQSGPELVKPGASVKISCKASGYSFTDYGMNWLKQINGKSLEWIAIINPNYGTASSNPKFKDKATLTVDHSSSTAYMQLSSLTSEDSAVYYCARAFDGYYFYWYFDVWGTGTTVTVSS VL: DVVMTQTPLSLPVSLGDQASISCRSSQSLIHTNGNTYLHWYLQKPGQSPKLLIYKVSNRFSGVPDRFSGSGSGTDFTLKISRLEAEDLGVYFCSQSTHVPLTFGAGTKLELR | 451 | 0.000355 | 787000 | – | – | – | –
5 | Chimeric 100H8 (antibody, V domains shown, also called murine-canine chimeric 100H8) VH: EVQLQQSGPELVKPGASVKIPCKASGYTFTDYNMDWVKQSHGKSLEWIGHINPNNGGILYNQKFKGKATLTVDRSSNTAYMELRSLTSEDTAVYFCARWAPLVRQPYWYFDVWGTGTTVTVSS VL: DIKMTQSPSSIFASLGERVTITCKASQDINSYLNWFQQKPGKSPKTLIYRADRLVDGVPSRFSGSGSGQDYSLTISSLEYEDMGIYYCLQYDEFPLTFGAGTKLELN | – | – | – | 2.02 | – | – | –
6 | 222E7 (antibody, V domains shown, Mouse monoclonal antibody from a hybridoma; also called mouse mAb 222E7) VH: EVQLQQSGPELVKPGSSVKIPCKASGYTFTDYNMDWVKQSHGKSLEWIGHINPNIGGTLYNQKFKGKATLSVDKSSSTAYMELRSLTSEDTAVYYCARWAQLQRQPYWYFDVWGPGTTVTVSS VL: DIKMTQSPSSMYASLGERVTITCKASQDINSYLNWFQQKPGKSPKTLIYRVNRLVDGVPSRFSGSGSGQDYSLTISSLEYEDMGIYYCLQYDEFPLTFGAGTKLELK | 174 | 0.000282 | 1.62e+06 | – | – | – | –
7 | 100H8 (antibody, V domains shown, Mouse monoclonal antibody from a hybridoma; also called mouse mAb 100H8) VH: EVQLQQSGPELVKPGASVKIPCKASGYTFTDYNMDWVKQSHGKSLEWIGHINPNNGGILYNQKFKGKATLTVDRSSNTAYMELRSLTSEDTAVYFCARWAPLVRQPYWYFDVWGTGTTVTVSS VL: DIKMTQSPSSIFASLGERVTITCKASQDINSYLNWFQQKPGKSPKTLIYRADRLVDGVPSRFSGSGSGQDYSLTISSLEYEDMGIYYCLQYDEFPLTFGAGTKLELN | 152 | 0.00012 | 788000 | – | – | – | –
